T1: NHERF3_4, Q5T2W1
T1 sequence (Q5T2W1 373-468, limits assumed, looked up): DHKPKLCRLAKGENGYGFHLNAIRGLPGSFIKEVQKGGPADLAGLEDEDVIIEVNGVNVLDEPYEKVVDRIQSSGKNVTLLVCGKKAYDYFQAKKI

T2: MPP7, Q5T2T1
T2 sequence (Q5T2T1 134-230, limits assumed, looked up): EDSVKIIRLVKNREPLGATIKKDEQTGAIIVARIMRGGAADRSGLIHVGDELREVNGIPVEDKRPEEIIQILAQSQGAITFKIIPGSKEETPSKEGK

T3: MPDZ_10, O75970
T3 sequence (O75970 1624-1722, limits assumed, looked up): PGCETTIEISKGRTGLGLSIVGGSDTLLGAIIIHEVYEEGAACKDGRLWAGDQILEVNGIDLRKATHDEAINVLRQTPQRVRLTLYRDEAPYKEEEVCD

T4: CARD11, Q9BXL7
T4 sequence (Q9BXL7 662-765, limits assumed, looked up): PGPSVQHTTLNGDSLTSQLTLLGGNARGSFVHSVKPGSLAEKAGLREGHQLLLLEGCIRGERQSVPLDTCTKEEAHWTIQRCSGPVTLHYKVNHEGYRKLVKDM

T5: APBA3_1, O96018
T5 sequence (O96018 389-490, limits assumed, looked up): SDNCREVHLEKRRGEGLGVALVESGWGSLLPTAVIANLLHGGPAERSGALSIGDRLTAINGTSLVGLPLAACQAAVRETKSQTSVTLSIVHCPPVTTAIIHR

T6: ARHGAP21, Q5T5U3
T6 sequence (Q5T5U3 45-169, limits assumed, looked up): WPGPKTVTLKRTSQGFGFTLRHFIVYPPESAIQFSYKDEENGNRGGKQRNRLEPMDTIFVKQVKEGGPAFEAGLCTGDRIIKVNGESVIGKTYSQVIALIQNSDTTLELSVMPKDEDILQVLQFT

T7: DVL3, Q92997
T7 sequence (Q92997 244-331, limits assumed, looked up): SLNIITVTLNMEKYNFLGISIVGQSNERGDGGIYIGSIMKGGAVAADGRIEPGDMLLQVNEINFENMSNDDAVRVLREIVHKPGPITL

T8: RADIL, Q96JH8
T8 sequence (Q96JH8 971-1071, limits assumed, looked up): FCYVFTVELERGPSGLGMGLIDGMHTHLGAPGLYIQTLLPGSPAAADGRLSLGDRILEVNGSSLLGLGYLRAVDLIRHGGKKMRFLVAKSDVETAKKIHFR


How the values were obtained:
Test in all cases: holdup assay
Design in all cases: key: below the threshold = too weak to quantify, mostly under pKd 3.1 to 4
Settings in all cases: plain residues with an end cap or a label only (N-terminal biotin on a linker: ado-ado)
[1] = molecular target: T1, NHERF3_4, Q5T2W1
[2] = molecular target: GRIP2_5, Q9C0E4
Chain of GRIP2_5, Q9C0E4 (Q9C0E4 544-642): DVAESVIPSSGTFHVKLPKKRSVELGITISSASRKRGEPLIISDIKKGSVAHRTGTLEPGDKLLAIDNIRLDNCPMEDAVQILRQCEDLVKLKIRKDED

[3] = molecular target: DLG2_2, Q15700
Chain of DLG2_2, Q15700 (Q15700 189-283): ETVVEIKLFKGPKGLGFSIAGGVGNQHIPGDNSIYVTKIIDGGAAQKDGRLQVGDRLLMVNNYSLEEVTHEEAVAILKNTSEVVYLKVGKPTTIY

[4] = molecular target: Inadl_6, Q8NI35
Chain of Inadl_6, Q8NI35 (Q8NI35 1058-1167): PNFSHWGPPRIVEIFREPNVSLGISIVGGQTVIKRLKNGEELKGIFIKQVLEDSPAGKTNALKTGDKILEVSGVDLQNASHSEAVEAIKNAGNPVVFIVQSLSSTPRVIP

[5] = molecular target: SCRIB_3, Q14160
Chain of SCRIB_3, Q14160 (Q14160 999-1103): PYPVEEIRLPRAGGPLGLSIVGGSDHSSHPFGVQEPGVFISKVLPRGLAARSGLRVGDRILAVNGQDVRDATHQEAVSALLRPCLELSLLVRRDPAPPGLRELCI

[6] = molecular target: MAGI2_3, Q86UL8
Chain of MAGI2_3, Q86UL8 (Q86UL8 600-682): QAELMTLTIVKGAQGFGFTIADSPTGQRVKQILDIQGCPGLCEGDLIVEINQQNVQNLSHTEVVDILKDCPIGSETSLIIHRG

[7] = molecular target: T2, MPP7, Q5T2T1
[8] = molecular target: T3, MPDZ_10, O75970
[9] = molecular target: ARHGEF12, Q9NZN5-2
Chain of ARHGEF12, Q9NZN5-2 (Q9NZN5 other isoform, or with tags, fused parts or gaps): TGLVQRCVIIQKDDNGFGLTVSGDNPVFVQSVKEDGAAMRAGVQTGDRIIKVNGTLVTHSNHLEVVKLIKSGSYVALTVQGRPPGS

[10] = molecular target: MAGI3_2, Q5TCQ9
Chain of MAGI3_2, Q5TCQ9 (Q5TCQ9 398-503): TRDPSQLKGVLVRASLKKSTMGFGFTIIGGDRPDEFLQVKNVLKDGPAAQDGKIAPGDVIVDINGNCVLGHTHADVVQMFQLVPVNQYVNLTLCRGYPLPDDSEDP

[11] = molecular target: MAGI2_2, Q86UL8
Chain of MAGI2_2, Q86UL8 (Q86UL8 410-522): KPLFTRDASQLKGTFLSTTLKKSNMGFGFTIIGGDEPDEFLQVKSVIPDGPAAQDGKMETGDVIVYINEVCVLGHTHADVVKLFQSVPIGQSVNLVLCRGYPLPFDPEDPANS

[12] = molecular target: T4, CARD11, Q9BXL7
[13] = molecular target: MAGI1_1, Q96QZ7
Chain of MAGI1_1, Q96QZ7 (Q96QZ7 1-106): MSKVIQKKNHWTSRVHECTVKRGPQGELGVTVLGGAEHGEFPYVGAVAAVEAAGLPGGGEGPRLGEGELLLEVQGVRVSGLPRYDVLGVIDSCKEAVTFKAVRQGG

[14] = molecular target: FRMPD2_3, Q68DX3
Chain of FRMPD2_3, Q68DX3 (Q68DX3 1073-1166): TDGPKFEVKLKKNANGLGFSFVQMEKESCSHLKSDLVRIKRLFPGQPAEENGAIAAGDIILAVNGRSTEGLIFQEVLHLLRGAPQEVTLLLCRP

[15] = molecular target: T5, APBA3_1, O96018
[16] = molecular target: T6, ARHGAP21, Q5T5U3
[17] = molecular target: LNX1_1, Q8TBB1
Chain of LNX1_1, Q8TBB1 (Q8TBB1 261-371): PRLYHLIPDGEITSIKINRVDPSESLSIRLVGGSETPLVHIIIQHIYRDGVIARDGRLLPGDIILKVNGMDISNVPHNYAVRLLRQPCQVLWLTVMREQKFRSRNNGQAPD

[18] = molecular target: LNX1_2, Q8TBB1
Chain of LNX1_2, Q8TBB1 (Q8TBB1 371-470): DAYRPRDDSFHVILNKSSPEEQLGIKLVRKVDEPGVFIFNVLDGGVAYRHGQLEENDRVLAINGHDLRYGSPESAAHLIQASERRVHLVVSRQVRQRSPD

[19] = molecular target: Inadl_9, Q8NI35
Chain of Inadl_9, Q8NI35 (Q8NI35 1530-1615): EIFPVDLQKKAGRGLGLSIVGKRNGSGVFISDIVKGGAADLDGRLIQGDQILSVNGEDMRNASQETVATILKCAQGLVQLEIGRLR

[20] = molecular target: DLG4_1, P78352
Chain of DLG4_1, P78352 (P78352 62-152): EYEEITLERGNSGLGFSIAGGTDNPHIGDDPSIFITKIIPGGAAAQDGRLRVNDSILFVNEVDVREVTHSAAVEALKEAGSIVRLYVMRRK

[21] = molecular target: GORASP1, Q9BQQ3
Chain of GORASP1, Q9BQQ3 (Q9BQQ3 1-208): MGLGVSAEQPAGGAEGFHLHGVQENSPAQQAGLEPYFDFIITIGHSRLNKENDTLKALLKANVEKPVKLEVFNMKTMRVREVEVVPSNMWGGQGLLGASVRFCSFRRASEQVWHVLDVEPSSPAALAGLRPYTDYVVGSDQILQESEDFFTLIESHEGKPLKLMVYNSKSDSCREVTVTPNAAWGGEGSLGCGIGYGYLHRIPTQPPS

[22] = molecular target: T7, DVL3, Q92997
[23] = molecular target: Inadl_10, Q8NI35
Chain of Inadl_10, Q8NI35 (Q8NI35 1673-1763): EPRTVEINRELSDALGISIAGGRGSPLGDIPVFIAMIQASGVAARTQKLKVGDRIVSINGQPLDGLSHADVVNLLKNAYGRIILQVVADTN

[24] = molecular target: PDZRN4_1, Q6ZMN7
Chain of PDZRN4_1, Q6ZMN7 (Q6ZMN7 213-318): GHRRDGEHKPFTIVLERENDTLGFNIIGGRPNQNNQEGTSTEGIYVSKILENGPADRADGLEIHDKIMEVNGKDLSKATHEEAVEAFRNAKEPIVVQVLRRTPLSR

[25] = molecular target: MAGI2_4, Q86UL8
Chain of MAGI2_4, Q86UL8 (Q86UL8 772-865): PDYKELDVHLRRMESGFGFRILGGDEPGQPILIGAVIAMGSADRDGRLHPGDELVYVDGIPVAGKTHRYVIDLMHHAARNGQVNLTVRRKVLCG

[26] = molecular target: PTPN3, P26045
Chain of PTPN3, P26045 (P26045 505-587): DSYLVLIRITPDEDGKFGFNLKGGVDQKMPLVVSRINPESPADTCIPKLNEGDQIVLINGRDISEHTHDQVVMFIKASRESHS

[27] = molecular target: T8, RADIL, Q96JH8
[28] = molecular target: LDB3, O75112
Chain of LDB3, O75112 (O75112 1-94): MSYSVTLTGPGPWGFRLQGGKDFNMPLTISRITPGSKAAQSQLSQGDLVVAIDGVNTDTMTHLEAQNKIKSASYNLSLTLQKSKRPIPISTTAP

[29] = molecular target: FRMPD4, Q14CM0
Chain of FRMPD4, Q14CM0 (Q14CM0 67-160): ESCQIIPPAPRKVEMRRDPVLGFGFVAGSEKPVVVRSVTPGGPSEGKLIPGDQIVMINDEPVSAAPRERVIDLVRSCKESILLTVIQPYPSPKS

[30] = molecular target: NOS1, P29475
Chain of NOS1, P29475 (P29475 9-101): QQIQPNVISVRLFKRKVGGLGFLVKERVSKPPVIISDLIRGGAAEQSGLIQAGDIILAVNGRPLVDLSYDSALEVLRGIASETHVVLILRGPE

Row | Binder | pKd [1] | pKd [2] | pKd [3] | pKd [4] | pKd [5] | pKd [6] | pKd [7] | pKd [8] | pKd [9] | pKd [10] | pKd [11] | pKd [12] | pKd [13] | pKd [14] | pKd [15] | pKd [16] | pKd [17] | pKd [18] | pKd [19] | pKd [20] | other results
1 | EEDTAEKDEL [HSPA5, P11021] | below the threshold | below the threshold | below the threshold | below the threshold | below the threshold | below the threshold | below the threshold | below the threshold | below the threshold | 4.48 | 3.48 | below the threshold | 3.51 | below the threshold | below the threshold | 4.05 | 3.87 | below the threshold | below the threshold | below the threshold | pKd [21]: below the threshold; pKd [22]: below the threshold; pKd [23]: below the threshold; pKd [24]: below the threshold; pKd [25]: 3.55; pKd [26]: below the threshold; pKd [27]: below the threshold; pKd [28]: 3.68; pKd [29]: 3.7; pKd [30]: below the threshold
2 | LSEFKAMDSF [CTNNA2, P26232] | below the threshold | below the threshold | below the threshold | below the threshold | below the threshold | below the threshold | below the threshold | below the threshold | below the threshold | below the threshold | below the threshold | below the threshold | below the threshold | below the threshold | below the threshold | below the threshold | below the threshold | below the threshold | below the threshold | below the threshold | pKd [21]: below the threshold; pKd [22]: below the threshold; pKd [23]: below the threshold; pKd [24]: below the threshold; pKd [25]: below the threshold; pKd [26]: below the threshold; pKd [27]: below the threshold; pKd [28]: below the threshold; pKd [29]: below the threshold; pKd [30]: below the threshold
3 | PELESKESVL [SLC1A4, P43007] | below the threshold | below the threshold | 3.71 | 3.57 | 4.7 | below the threshold | below the threshold | below the threshold | 4.53 | 3.84 | below the threshold | below the threshold | below the threshold | below the threshold | below the threshold | 4.07 | below the threshold | below the threshold | below the threshold | 3.79 | pKd [21]: below the threshold; pKd [22]: below the threshold; pKd [23]: below the threshold; pKd [24]: 4.66; pKd [25]: below the threshold; pKd [26]: 5.05; pKd [27]: below the threshold; pKd [28]: below the threshold; pKd [29]: 3.85; pKd [30]: 3.65

Reference: publication PMC9482650, “Quantitative fragmentomics allow affinity mapping of interactomes” (Nature Communications, 2022)
